# Measurements published in patent publication CN111978395A (UNIV SICHUAN, dated 2020).
# Changes are numbered by the printed parent chain.
# B1: DK5 (antibody, V domains shown)
# VH: QVQLQQPGAELVKPGASVKMSCKASGYTFTSYSMHWVKQTPGQGLEWIGAIYPGNGDTSYNQKFKGKATLTADKSSSTAYMQLSSLTSEDSAVYYCARDYHYDGYYVTLDYWGQGTTLTVSS
# VL: DIQMTQSPSSLSASLGERVSLTCRASQEISGYLSWLQQKPDGTIKRLIYAASTLDSGVPKRFSGSRSGSDYSLTISSLESEDFADYYCLQYASYPWTFGGGTKLEIK
# B2: DK6 (antibody, V domains shown)
# VH: B1 VH with A9T, M34I
# VL: B1 VL
# B3: DK2 (antibody, V domains shown)
# VH: QVQLQQPGAELVKPGASVKMSCKASGYTFISYSMHWVKQTPGQGLEWIGAIYPGNGDTSYTQKFKGKATLTADKSSTTAYMQLSSLTSEDSAVYYCARDHGNYVLDYWGQGTTLTVSS
# VL: DIVMTQSHKFMSTSVGDRVSITCKASQDVGTAVAWYQQKPGQSPKLLIYWASTRHTGVPDRFTGSGSGTDFTLTISNVQSEDLADYFCQQYSSYPWTFGGGTKLEIK
# B4: DK7 (antibody, V domains shown)
# VH: B1 VH
# VL: B1 VL
# B5: DK10 (antibody, V domains shown)
# VH: B1 VH with N61T, S84N
# VL: B1 VL
# B6: DK14 (antibody, V domains shown)
# VH: QVQLQQPGAELVKPGASVKLSCKASGYTFISYWMHWVKQRPGQGLEWIGEIDPSDSYTNSNQKFKGKATLTVDKSSSTAYMQLSSLTSEDSAVYYCARSELWAMDYWGQGTSVTVSS
# VL: DIVMTQAAFSNPVTLGTSASISCRSSKSLLHSHGITYLYWYLQKPGQSPQLLIYQMSNLASGVPDRFSSSGSGTDFTLRISRVEAEDVGVYYCAQNLELPWTFGGGTKLEIR
# B7: DK15 (antibody, V domains shown)
# VH: QVQLQQPGAEFVMPGASVKMSCKASGYTFTDYWMHWVKQRPGQGLEWIGAIDTSDTYTRYNQKFKDKATLTVDESSSTAYMQLSSLTSEDSAVYYCARFLYYYGNPTFDYWGQGTTLTVSS
# VL: DVQITQSPSYLAASPGETITINCRASKSISKYLAWYQEKPGKTNKLLIYSGSTLQSGIPSRFSGSGSGTDFTLTISSLEPEDFAMYYCQQHNEYPLTFGAGTKLELK
# B8: DK11 (antibody, V domains shown)
# VH: EVQLQQSGPELVKPGASVKISCKASGYSFTGYFMNWVKQSHGKSLEWIGRINPYNGDTFYNQKFKGKATLTVDKSSSTAHMELLSLTSEDSAVYYCGRGYLDYWGQGTTLTVSS
# VL: DIVMTQSHKFMSTSVGDRVSITCKASQDVSTAVAWYQQKPGQSPKLLIFSASYRYTGVPDRFTGSGSGTDFTFTISSVQAEDLAVYYCQEHYSNPYTFGGGTKLEIK
# Molecular target: T1, SARS-CoV2病毒表面SPIKE蛋白的RBD结构域 (SARS-CoV2, UniProt P0DTC2 319-541)
# Experiment: Biacore (SPR), recombinant antibody against RBD
row,Binder,Kd [nM]
1,B1,< 1
2,B2,< 1
3,B3,< 1

# Molecular target: T1, SARS-CoV2病毒表面SPIKE蛋白的RBD结构域
# Experiment: Biacore blocking experiment, antibody of the hybridoma clone
row,Binder,阻断率 [%]
1,B1,≥ 60
2,B2,≥ 60
3,B3,≥ 60

# Molecular target: SARS-CoV2病毒的囊膜蛋白SPIKE (SARS-CoV2, UniProt P0DTC2 14-1273)
# Experiment: cell-based or functional assay
Binder,"EC50(nM), 阻断假病毒感染 (GFP阳性细胞) [nM]","EC50(μg/mL), 阻断假病毒感染 (GFP阳性细胞) [µg/mL]"
B1,0.1,0.015
B4,0.47,0.071
B5,1.63,0.245
B2,0.47,0.071
B6,0.41,0.062
B7,1.27,0.191
B3,0.083,0.012
B8,0.34,0.051
